Results: the supplement of paper PMC12636428

Test system: Saccharomyces cerevisiae
Test: transcriptional activation domain activity (GFP:mCherry ratio, weighted mean of sorted bins, harmonized to initial dataset scale) (arbitrary fluorescence ratio units); higher = stronger transcriptional activation
Conditions: beta-estradiol 1 µM; induction time 4 h
How it was run: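 In diploid yeast carrying a GFP reporter, barcoded protein tiles fused to an estradiol-inducible synthetic transcription factor were integrated at the URA3 locus. Cultures diluted 1:5 into SC with 1 uM beta-estradiol were kept at 30 °C for 4 hours, then sorted by GFP:mCherry ratio into 8 bins before barcode sequencing. Tiles with under 50 reads were excluded. The activation activity reported here is the read-weighted mean of bin median fluorescence, averaged across barcodes and linearly rescaled to the initial dataset.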

Sequence | transcriptional activation domain activity
SFSVILFYFIFLISPGQKAAFVFPWSFFFFLFFFFFFFTFFYFRLFSANFVCV | 45000
MDSGTLVGGANADGLVEIPLPGHDSIHLHVTHPRVMFLLTFLVSAACKRDPVS | 27100
AESQSSRATHTRKRAKQACRQCNARRVRCNVAESQPCANCRSSGSACELLPSK | 26200
AKLALILVLFEVYVKWFKLEKLYGRSDFLLVESLHYQYFCILCLCVVEFVIWH | 45300
MSNGSSFVQCIDTRLCLLYSLVFREHMAFHPIISSFLFLIRLLILLASLFLFF | 48500
MFYGFGSLSYGKGVTEFFFFSFFFFVASFISCFLFNFFSSAQFCCLFFHFVLI | 58300
GGRGGGRGGRGGGGRGGRDRDGGRGGGRGRGGRGGGEGEEVVGTEGKDGGAEA | 18300
DESPDADATKREKKKKKQKKRKVLQKEEEEEAEAARDKRERKKRKKSKSDIRR | 39200
PPPPPPPPPPAGRGGGAPPPHAISGGAPPPPPTPPPPPPPPPPPGVVPVPPPP | 41600
KLLCVGRPFRASSTEVVVTMALLSMLRHLPTTRWKDSLKLLAWVLEQYIYRFT | 51000
IALCEAVYIWLAKQLYQEFGWKIYKKIGADLIKRRMYRDYHICLMLLKLDLFF | 64200
VPSDSRRCRLKGVTVFTWWRNVFRQALRHQRWICLQYITSFEREWRSVLAIVR | 44800
VPLVSNSGIVCYDSKIMHAFLSGLLFLQGLMILWFIMIFKLVVRVLLGENAED | 43900
HLGFRYWLLSATEIVNTIFLPSVIAYLYTVYIRFLLTYWLSYAIIAGSFMILF | 53000
MYVCVYIFGCYLFGFMIFVYFFPIYFFNSLFSCSYFFFLLIYSFILFIYSVAA | 44800
MMAMAFDPGFRDDEVVQFLLYELGVSSLLFCFVCFGDFVDFLDPFAFWVDLLF | 48600
LTHLRQLLEVKRTRRSLFVFRKTLGRIIRPVITWTYIFFFTLSMWTKPIVPLI | 36900
MGWGGASGFSPVVGIFFFTGPLLLFLSTVFLWIQAQFFPMMVCGLFCVFWLSF | 60500
MRSMKRTFFFFFLVFDLRYYSVLYYILYLYPFPFFLFLFIFYFPLFLFLSTAS | 54500
VAVAREPFQEGADASGKLYNKDSLDDEDSRKYVVILNAFLQMLAALDELVLVL | 76700
IVEGLLGVDFIWQDNLPDLIDQFTNLLTLGLDFQAIDFHGGLSWNYLPSTFIN | 63500
YSRLILSVIIQFYQRCSDRFQDVVSRNSLDLTDTRLLVSARWAQRENLVVCLS | 49600
LSRGSCFVFWIFFSVPPPLFPFIYSYIFFFSFLLWFSVFVSVVFSFFSFWFFF | 55700
PTCALLSLQPVLPSPFGPPSSLLPVTSLFYLSPPSLLCILALSSFLLILPLLF | 38800
GPFQSSAQVDGTLDGDLLQELLIAFLSRKKRFVVWKVMKVLFATLLKRMGAHD | 55600
RSAPGGRAGGRDGGSSSSSSDSSDEERETDGPVRKRRRTATSGARKAAPKSRP | 29200
EKEVEGNKNNEEDKPEENEEKDGEDKDAKEKGEEDEDEEDRDQDQEDEDQEGR | 11800
DVKISNDFFDNGDNLYGNDEEVLFYEDNYNPKMQWSLQDNSAAINNEDARAIF | 107000

Sequence | transcriptional activation domain activity
PHHKWVVPTPFSSHAFHPVDGWLQSIPYHIFILVFPLHRVLYLVLFVLINFWT | 59200
AGTVPLMIYSTRLARESIGAWRLACLTLFIVTQIRGSVVLLAKSKLWTHILSC | 74600
PKRRLGVAVTWTGLTLLLLLLLLLLPSLIILPSFAACFWYIYWGILRISFFFY | 26100
ADRLIRILRILMFNWKFWNTGCFATYDPNSNLVRLEIPCSRDLLGTKPGTYYY | 50200
SLFLSFFIFPLFLFFYFFSFFFDLFIVCMVHLFLGKDLYLFGYQKVLFCFCLC | 65700
ALLKLLVMMLWEIEFYEPCFGALRLMDYITSEICPDSNLSAEATLLRIRTLIR | 58200
AHSKKKTCDVCKYPYSFTKVYAQDMPARLPVFLLLRRLAQQGALAMLFAIRAV | 73300
HESEESSDKKGKKKAKIEEEKEEEKEAEEEKAEEVEEAEEAEEVGEVGEEAAV | 45400
IYFTFRILLYAIWCALAKVHRWNKTTLWNTLCKYLSRLVAATKSRTKTHAPWL | 49300
TLHHKHVVLWNTSRQVATEVIRLPFSCSGKMLCLLLLPEAEDGLKRVHVVALS | 25600
LANGLVVVLHTEAYDLPDNFASNCWFVIYYTNNSYLRFSSIYRYIFSIVIIVL | 45800
SRTTSLGVWFLVIQMIWYGLFGALYIWFFCQDWYLFDVHLVFDYLMRFILCLM | 40700
ETKGASGEGGKSTSESGSASSSSSKGEGKAAGEQGSSGSSSGSSSESGSKEKT | 30100
LFALAMLLLFCFIGLLVSGLHFGHRVYSDDCLGQSWIMFSSILGFLYIGLHVQ | 32600
NCTNLPSVVVVGGSVPIDSQGLQIWSLLIYSIVLVPGLNLVVSSLIFLGIFWL | 30000
GGPARRMKPGAPDARREEGGKKKRGATNDTGAAKEKAPAKGRKGKKKPAEESE | 44500
YPKALPFYGKILGYMTSIYDTIARLAFLKTLQPQGPLDYMLWLVIMTATRIFY | 53800
RTKASGSSGEAAAASGGASSSKAEDARAEGGEEAAKPRRSSRLSAKSAGESAG | 15000
FSWFALANIWLMFSIIIDLLPGQNIIIFGTADIICGTHWMNLVFKWIYLAFLV | 36900
FDIITASLENSYQTTLTEKGSQVMEKNMDQLDSVHNLNDDDLQQLLEDLGNID | 111000
FFRRLLLEIGWAHPLLVLCSATLLEPAHSRDHYVSKVFSHLSPEHAHVVGEIA | 47500
MFSHFNSSDLTSTFFFFMPVLGFILCPFFLLESMVCALVGWPCFLLSYCLPCL | 68900
VQKNYIMQYGNSLIGHQLKTLVQVNAFHVYDLVDSMQFLLTKVISELATLLWF | 59200
MRLNICKDLWIHSAFRMLSDISAASLFLVSRSYFIIIFTVASLGYTRMLSLYH | 51900
IPENELLDEDTMNFISSLKNDLSNISNSLPFEYPHEIAEAIRSDFSNEDIYDN | 98200
DRLSLRFTLAISLTDVIRAIAILIYSHFQVDDWRCSLLSFSLYWLTLLYLFLT | 25300
MFKSFLGHSDQNTFFFFVLLLLLLCCHISLRAFFIFLSWIQLLYVLQWDECDK | 47800
